Measurements taken from US20200002426A1 (published 2020).

Experiments:
His tagged TGF-β1 = His tagged TGF-β1 (UniProt P01137 279-390); experiment: BLI
His-tagged huPD-L1 = His-tagged huPD-L1 (human, UniProt Q9NZQ7 19-238); experiment: BLI
[1] = target: human PD-L1 on CHO-K1 cells (human, UniProt Q9NZQ7 19-290); experiment: FACS binding
[2] = target: FITC labeled human PD-L1-Fc protein (human, UniProt Q9NZQ7 19-238, FITC labeled (sites not given)); experiment: FACS blocking of PD-L1/PD-1
huTGF-β1 = huTGF-β1 (human, UniProt P01137 279-390); experiment: ELISA; simultaneous binding, detected with biotinylated hu PD-L1
Chain of huTGF-β1 (P01137 279-390): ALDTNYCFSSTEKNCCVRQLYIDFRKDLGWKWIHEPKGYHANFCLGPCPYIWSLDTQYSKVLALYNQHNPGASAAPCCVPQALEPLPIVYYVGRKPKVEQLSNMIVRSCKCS

Chain of His tagged TGF-β1 (P01137 279-390): as above
Chain of His-tagged huPD-L1 (Q9NZQ7 19-238): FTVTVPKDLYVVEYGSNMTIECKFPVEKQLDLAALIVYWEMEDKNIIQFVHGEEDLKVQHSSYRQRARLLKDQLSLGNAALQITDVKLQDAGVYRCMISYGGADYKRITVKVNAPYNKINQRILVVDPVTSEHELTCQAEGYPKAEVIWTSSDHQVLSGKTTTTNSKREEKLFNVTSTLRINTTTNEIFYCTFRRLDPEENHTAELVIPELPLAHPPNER
Chain of FITC labeled human PD-L1-Fc protein (Q9NZQ7 19-238): as above
Chain of human PD-L1 on CHO-K1 cells (Q9NZQ7 19-290): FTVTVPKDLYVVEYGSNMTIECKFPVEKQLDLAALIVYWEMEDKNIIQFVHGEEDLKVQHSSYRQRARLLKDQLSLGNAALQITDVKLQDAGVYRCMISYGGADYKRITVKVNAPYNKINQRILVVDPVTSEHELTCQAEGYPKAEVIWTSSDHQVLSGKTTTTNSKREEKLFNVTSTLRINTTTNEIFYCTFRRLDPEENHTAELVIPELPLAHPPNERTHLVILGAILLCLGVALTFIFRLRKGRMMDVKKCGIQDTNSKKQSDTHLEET

Kd (His tagged TGF-β1): 0.28 nM
Kd (His-tagged huPD-L1): 0.83 nM
EC50 [1]: 1.6 nM
IC50 [2]: 1.23 nM
EC50 (huTGF-β1): 10.3 nM
B1: Bi-PLB-1.2 (antibody)
chain 1: not shown
chain 2: DIQMTQSPSFLSASVGDRVTITCKASQNVGTNVAWYQQKPGKAPKALIYSASYRYSGVPSRFSGSGSGTEFTLTISSLQPEDFATYYCQQYYSYPYTFGQGTKLEIKRTVAAPSVFIFPPSDEQLKSGTASVVCLLNNFYPREAKVQWKVDNALQSGNSQESVTEQDSKDSTYSLSSTLTLSKADYEKHKVYACEVTHQGLSSPVTKSFNRGEC
